PMC5097169 (2016)

T1: GST fusion to Xenopus laevis CENP-A amino terminus (amino acids 1–50) (Xenopus laevis (African clawed frog), UniProt Q569M3)
T1 chain: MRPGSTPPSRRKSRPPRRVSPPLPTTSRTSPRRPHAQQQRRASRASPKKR


Experiments:
[1] = molecular target: T1, GST fusion to Xenopus laevis CENP-A …; assay: GST-tail resin pull-down, Coomassie
[2] = molecular target: Flag RbAp46 (Xenopus, recombinant) (Xenopus laevis (African clawed frog), UniProt Q8AVH1); assay: GST-CENP-A tail resin pull-down (bridged), Coomassie; inferred from RbAp46-dependent recovery of Hat1 on the immobilized GST-CENP-A N-terminal tail (1-50); no direct two-protein test

Row | binding result [1] | binding result [2] | Binder
1 | binds | – | Flag RbAp46 (Xenopus, recombinant) (protein) MANKEMFEDTVEERVINEEYKIWKKNTPFLYDLVMTHALEWPSLTVQWLPDVTRPEGKDYALHWLVLGTHTSDEQNHLVVARVQVPNDDAQFDASHYDSEKGEFGGFGSVSGKIETEIKINHEGEVNRARYMPQNPCIIATKTPSADVLVFDYTKHPSKPDPSGECSPDLRLRGHQKEGYGLSWNSNLSGHLLSASDDHTVCLWDISAGPKEGKVVDAKAVFTGHSAVVEDVAWHLLHESLFGSVADDQKLMIWDTRSNTTSKPSHSVDAHTAEVNCLSFNPYSEFILATGSADKTVALWDLRNLKLKLHSFESHKDEIFQVHWSPHNETILASSGTDRRLNVWDLSKIGEEQSAEDAEDGPPELLFIHGGHTAKISDFSWNPNEPWVICSVSEDNIMQIWQMAENIYNDEEPDIPASELEAQGS
2 | – | binds | Flag Hat1 (Xenopus, recombinant) (protein) MEKKLAEYKCNTNEAIQLKLVRFPEDIEDESMTFNPEYSHQIFGDEEVAFGYKGLKILLYYSAGNLSTMFRVQYSSKVNDKFDLVQPDDVENKIHELIPAGFCSGTDDFITLLEKEVNFKPFGTIVHTYTVHNEDAGEDISYQIYKADMTSPGFREYHERLQTFMMWFIETASYIDVDDEKWDYFLVFEKYNKDGATLFATVGYMTVYNYYVYPDKTRPRVSQMLVLPPFQGEGHGAQLMETVHRYYVSAPNILDITAEDPSENFVRLRDFVLVKLCQNLPCFSPEKLLCGFSKEMVTEAQEKLKINKKHARRVYEILRLRATDMSDPEKSKAYRLDVKKRLVGPYKKNQREMAKMQQCLRPEELTNQMNQIDLNTQHEQLEESYQQLVEEYRRIVERLAQA
